Laboratory results: patent US20210371503A1 (UNIVERSITY OF COLOGNE, published 2021)
Like-named read-outs stand apart in the source and are kept apart here.

Key:
[1] = target: T1, receptor-binding domain (RBD) of the spike (S) protein of SARS-CoV-2 (SARS-CoV-2, UniProt P0DTC2 319-541); assay: ELISA, coated RBD [cont'd]
T1 construct: also called soluble RBD

[2] = target: S1 (truncated S1 subunit); assay: ELISA, coated truncated S1 [cont'd]
[3] = target: S1 (truncated S1 subunit); assay: ELISA, coated truncated S1 [cont'd]; remark: listed apart in the source
[4] = target: T1, receptor-binding domain (RBD) of the …
[5] = target: T1, receptor-binding domain (RBD) of the …; assay: ELISA, coated RBD [cont'd]; remark: listed apart in the source
[6] = target: T1, receptor-binding domain (RBD) of the …; remark: listed apart in the source
[7] = target: T1, receptor-binding domain (RBD) of the …; assay: assay not stated; row Binding Affinity Spike RBD

B1: MnC4t2p1_E6 (antibody, V domains shown)
VH: EVQLVESGGHLVQPGRSLRLSCAASGFTFDDYAMHWVRQVPGKGLEWVSGISWNGGILGYADSVKGRFTISRDNAKNSLYLQMRSLRTDDTALYYCAKDLRRQDYYADWYFDLWGRGTLVTVSS
VL: DIQMTQSPSSVSASVGDRVTITCRASQGISSWLAWYQQKPGKAPKLLIYAASTLLSAVPSRFSGSGSGTDFTLTISSLQPEDFATYYCQQGNSFPFTFGPGTKVDV
For B1, the EC50 [1] was < 100 µg/mL and the EC50 [2] was < 100 µg/mL.

B2: MnC4t1p1_A11 (antibody, V domains shown)
VH: EVQLVESGGGLVQPGGSLRLSCAASGFTFSSYSMNWVRQAPGKGLEWVSYISSSSNTRYYTDSVMGRFTISRDNAKNSLFLQMNSLRAEDTAVYYCASSKGFCSGGSCSDYWGQGTLVTVSS
VL: EIVLTQSPGTLSLSPGERATLSCRASQSVSSSYLAWYQQKPGQAPRLLIYGVSSRATGIPDRFSGSGSGTDFTLTISRLEPEDFVVYYCHQYGSSPWTFGQGTKVEIK
In the case of B2, the EC50 [3] is reported as < 100 µg/mL, the Kd [4] is reported as 2000 nM and the EC50 [5] is reported as < 100 µg/mL.

B3: MnC4t2p2_A4 (antibody, V domains shown)
VH: QVQLVQSGSELKKPGASVKISCKASGYIFINYAMNWVRQAPGQGLEWMGWINTNTGNPTYAQDFTGRFVFSLDTSLSTAYLQISSLEAEDTAVYYCAKIGSRNSLGVWGQGTLVTVSA
VL: EIVLTQSPGTLSLSPGERATLSCRASHSVDRSYLAWYQQKPGLAPRLLIYGASSRATGIPDRFSGSGSGTDFTLTISRLEPEDFALYYCQHFGTSSVTFGRGTRLEIK
For B3, the EC50 [1] was < 100 µg/mL, the Kd [6] was 14 nM and the EC50 [2] was < 100 µg/mL.

B4: DZIF-10c (antibody, V domains shown)
VH: QVQLVESGGGVVQPGRSLRLSCAATGFTFRRYGMHWVRQAPGKGLEWVAGILFDGSNKYYVDSVKGRFTISRDSSRNTLYLQLNSLRREDTAVYYCAKGGDYEWELLESWGQGTLVTVSS
VL: DIQMTQSPSTVSASVGDRVTITCRASQSIDNWLAWYQEKPGKAPKVLIYKASSLESGVPSRFSGRGSGTEFTLTISSLQPGDFATYYCQHYHSFPLTFGGGTKVDIKR
notes: also called HbnC3t1p1_F4(-K); EX14870
Binder B4 has a Kd [7] of 2 nM.
